According to the Human Domainome abundance scans (Beltran et al. 2025):
± gives the uncertainty stated by the source.

B1: Intersectin-1, residues 909 to 971; numbered along this chain, Q15811 (parent)
chain: QGEKVEGLQAQALYPWRAKKDNHLNFNKNDVITVLEQQDMWWFGEVQGQKGWFPKSYVKLISG
B2: Chromodomain-helicase-DNA-binding protein 4, residues 444 to 496; numbered along this chain, Q14839 (parent)
chain: EDDHHMEFCRVCKDGGELLCCDTCPSSYHIHCLNPPLPEIPNGEWLCPRCTCP

Variants of: B1
Experiment: abundance fitness (aPCA) (normalised: wild type 0, dead -1); higher = more abundant; growth selection in yeast, the domain comes from the species named
Details: Homo sapiens

Abundance fitness: each site, then its substitutions
S62: Y -0.626 ± 0.38 | D -0.041 ± 0.22 | I -0.165 ± 0.3 | H -0.362 ± 0.23 | F -0.63 ± 0.23 | C -0.089 ± 0.16 | Q 0.067 ± 0.45 | R -0.101 ± 0.11 | W -0.075 ± 0.35 | P -0.21 ± 0.13 | L -0.084 ± 0.16 | N -0.151 ± 0.22 | A 0.062 ± 0.098 | G -0.129 ± 0.12 | E -0.398 ± 0.38 | V -0.253 ± 0.21 | T -0.209 ± 0.19 | K -0.158 ± 0.28
Y57: Q -0.14 ± 0.12 | V -0.084 ± 0.11 | N 0.212 ± 0.41 | K 0.081 ± 0.23 | S -0.308 ± 0.14 | I -0.289 ± 0.28 | G -0.572 ± 0.13 | W -0.258 ± 0.36 | H -0.238 ± 0.18 | R -0.013 ± 0.08 | T -0.013 ± 0.16 | M 0.008 ± 0.13 | L 0.013 ± 0.13 | P -1.02 ± 0.4
L60: V -0.06 ± 0.1 | Q 0.049 ± 0.12 | R -0.119 ± 0.087 | I -0.258 ± 0.25 | T -0.162 ± 0.1 | M -0.058 ± 0.2 | F -0.536 ± 0.17 | K -0.1 ± 0.11 | G -0.18 ± 0.056 | N -0.254 ± 0.18 | D -0.22 ± 0.23 | P -0.152 ± 0.12 | S -0.18 ± 0.095 | C 0.029 ± 0.11
V58: D -0.793 ± 0.47 | S -0.816 ± 0.23 | E -0.703 ± 0.17 | L -0.812 ± 0.16 | W -0.87 ± 0.15 | T -0.395 ± 0.15 | I -0.451 ± 0.17 | F -0.821 ± 0.37 | G -0.881 ± 0.15 | A -0.189 ± 0.088 | P -0.379 ± 0.2 | C -0.169 ± 0.14 | R -1.04 ± 0.34
K59: D -0.615 ± 0.28 | N -0.114 ± 0.43 | Q -0.109 ± 0.17 | G -0.424 ± 0.11 | T -0.31 ± 0.13 | M -0.108 ± 0.23 | E -0.128 ± 0.14 | W -0.747 ± 0.24 | S -0.122 ± 0.13 | H -0.211 ± 0.33 | I -0.227 ± 0.21 | R -0.043 ± 0.09 | Y -0.378 ± 0.33 | A -0.165 ± 0.14 | V -0.234 ± 0.12 | C -0.192 ± 0.2 | L -0.331 ± 0.14
I61: F 0.08 ± 0.29 | E -0.088 ± 0.13 | G -0.207 ± 0.069 | H -0.438 ± 0.2 | D -0.159 ± 0.14 | Y -0.223 ± 0.27 | A -0.073 ± 0.097 | V 0.095 ± 0.085 | W -0.274 ± 0.12 | R -0.155 ± 0.065 | T -0.137 ± 0.26 | S -0.301 ± 0.13 | K -0.079 ± 0.16 | L 0.002 ± 0.078 | M -0.383 ± 0.18
G63: Q -0.248 ± 0.38 | L -0.077 ± 0.32 | P -0.01 ± 0.19 | C 0.026 ± 0.12 | M 0.011 ± 0.22 | A -0.058 ± 0.1 | I -0.151 ± 0.35 | D 0.07 ± 0.14 | W -0.276 ± 0.15 | S -0.278 ± 0.15 | R -0.029 ± 0.086 | T 0.032 ± 0.15

Variants of: B2
Experiment: as above
Details: Homo sapiens

Abundance fitness: each site, then its substitutions
D14: S 0.018 ± 0.047 | T -0.1 ± 0.047 | E 0.223 ± 0.076 | Y -0.412 ± 0.07 | H -0.18 ± 0.059 | F -0.34 ± 0.061 | R -0.057 ± 0.052
F8: C -0.048 ± 0.059 | S -0.124 ± 0.045 | I -0.019 ± 0.05 | P -0.388 ± 0.045 | M -0.073 ± 0.063
P48: W -0.349 ± 0.051 | F -0.717 ± 0.078 | R -0.352 ± 0.042 | E -0.042 ± 0.059 | D -0.102 ± 0.05 | S -0.21 ± 0.045
C9: H -0.79 ± 0.064 | D -0.601 ± 0.11 | G -0.535 ± 0.094 | W -0.844 ± 0.15 | Q -0.668 ± 0.07
P41: D -0.282 ± 0.097 | K -0.118 ± 0.067 | Q -0.18 ± 0.062 | S -0.226 ± 0.059
E17: F -0.395 ± 0.064 | C -0.382 ± 0.12 | A -0.309 ± 0.064
H5: C 0.068 ± 0.085 | I 0.165 ± 0.084 | Y 0.097 ± 0.075 | N -0.006 ± 0.077 | G 0.106 ± 0.044 | V -0.135 ± 0.053
G16: H -0.831 ± 0.055 | N -0.186 ± 0.078 | K -0.143 ± 0.054 | L -0.7 ± 0.061
E39: N 0.026 ± 0.058 | G -0.056 ± 0.06 | D -0.292 ± 0.099 | A 0.011 ± 0.073 | L -0.189 ± 0.048 | S 0.021 ± 0.044 | Y -0.201 ± 0.068 | V -0.025 ± 0.05
C12: I -0.73 ± 0.048 | E -0.124 ± 0.1 | K -0.607 ± 0.07 | Y -0.557 ± 0.089
P35: D -0.262 ± 0.093 | H -0.386 ± 0.071
C24: F -1.01 ± 0.12
C47: G -0.652 ± 0.046 | Y -0.78 ± 0.057
C52: I -0.189 ± 0.18 | P -0.667 ± 0.34 | M 0.433 ± 0.11 | E 0.489 ± 0.12 | Q 0.145 ± 0.068
D2: V 0.217 ± 0.059 | R 0.033 ± 0.065
